In article PMC9246715, “Bacillus subtilis biofilm matrix components target seed oil bodies to promote growth and anti-fungal resistance in melon” (Nature Microbiology, 2022):

Target: the molecule itself
Test: thioflavin T fluorescence (polymerization kinetics) + TEM; purified TasA 0.4 or 0.2 mg/ml in buffer (20 mM Tris, 50 mM NaCl, pH 7) or seed apoplastic fluid, 20 µM ThT, 30 °C, shaking

B1: amyloid protein TasA (natural protein, B. subtilis, UniProt P54507 28-261, looked up)
chain: AFNDIKSKDATFASGTLDLSAKENSASVNLSNLKPGDKLTKDFQFENNGSLAIKEVLMALNYGDFKANGGSNTSPEDFLSQFEVTLLTVGKEGGNGYPKNIILDDANLKDLYLMSAKNDAAAAEKIKKQIDPKFLNASGKVNVATIDGKTAPEYDGVPKTPTDFDQVQMEIQFKDDKTKDEKGLMVQNKYQGNSIKLQFSFEATQWNGLTIKKDHTDKDGYVKENEKAHSEDKN
notes: TasA, amyloid protein of the extracellular matrix of Bacillus subtilis biofilms; also called purified TasA
**Q.** Does B1 bind?
**A.** Result: binds
